In IntAct's records for PubMed 18242179:

B1: Calcium/calmodulin-dependent protein kinase kinase 1 (Homo sapiens), Q8N5S9 (parent)
chain: MEGGPAVCCQDPRAELVERVAAIDVTHLEEADGGPEPTRNGVDPPPRARAASVIPGSTSRLLPARPSLSARKLSLQERPAGSYLEAQAGPYATGPASHISPRAWRRPTIESHHVAISDAEDCVQLNQYKLQSEIGKGAYGVVRLAYNESEDRHYAMKVLSKKKLLKQYGFPRRPPPRGSQAAQGGPAKQLLPLERVYQEIAILKKLDHVNVVKLIEVLDDPAEDNLYLVFDLLRKGPVMEVPCDKPFSEEQARLYLRDVILGLEYLHCQKIVHRDIKPSNLLLGDDGHVKIADFGVSNQFEGNDAQLSSTAGTPAFMAPEAISDSGQSFSGKALDVWATGVTLYCFVYGKCPFIDDFILALHRKIKNEPVVFPEEPEISEELKDLILKMLDKNPETRIGVPDIKLHPWVTKNGEEPLPSEEEHCSVVEVTEEEVKNSVRLIPSWTTVILVKSMLRKRSFGNPFEPQARREERSMSAPGNLLVKEGFGEGGKSPELPGVQEDEAAS
partner: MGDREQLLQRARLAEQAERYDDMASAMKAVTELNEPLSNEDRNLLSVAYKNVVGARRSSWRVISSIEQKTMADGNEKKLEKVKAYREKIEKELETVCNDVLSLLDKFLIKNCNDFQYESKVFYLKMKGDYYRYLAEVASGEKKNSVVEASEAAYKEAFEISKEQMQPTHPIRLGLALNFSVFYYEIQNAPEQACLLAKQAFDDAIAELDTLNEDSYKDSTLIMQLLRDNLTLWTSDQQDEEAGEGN

Variants of: B1
Conditions: with 1433f_human YWHAH

Variant	effect of a mutation on the interaction
S74A	disrupting interaction
S475A	disrupting interaction

Variants of: B1
Conditions: with 1433f_human YWHAH
Remark: another data set of the same source

Variant	effect of a mutation on the interaction
S52A;S74A;S458A;S475A	disrupting interaction

Variants of: B1
Conditions: with 1433f_human YWHAH
Remark: another data set of the same source

Variant	effect of a mutation on the interaction
S52A;T108A;S458A;S475A	decreasing interaction

Variants of: B1
Conditions: with 1433f_human YWHAH
Remark: another data set of the same source

Variant	effect of a mutation on the interaction
S52A;S74A;T108A;S475A	disrupting interaction
